Non-standard residues stand in square brackets, D forms with d. No end group written: not given here. pY = N[C@@H](Cc1ccc(OP(=O)(O)O)cc1)C(=O)O
T1: GST-WT-CBL (47–435) (UniProt P22681 47-435)
T1 construct: CBL fragment, residues 47-435; also called WT-CBL fragment; source: recombinant, purified (preparation in the Supplemental Information); not shown: GST, N-terminal, kept
T1 sequence (looked up): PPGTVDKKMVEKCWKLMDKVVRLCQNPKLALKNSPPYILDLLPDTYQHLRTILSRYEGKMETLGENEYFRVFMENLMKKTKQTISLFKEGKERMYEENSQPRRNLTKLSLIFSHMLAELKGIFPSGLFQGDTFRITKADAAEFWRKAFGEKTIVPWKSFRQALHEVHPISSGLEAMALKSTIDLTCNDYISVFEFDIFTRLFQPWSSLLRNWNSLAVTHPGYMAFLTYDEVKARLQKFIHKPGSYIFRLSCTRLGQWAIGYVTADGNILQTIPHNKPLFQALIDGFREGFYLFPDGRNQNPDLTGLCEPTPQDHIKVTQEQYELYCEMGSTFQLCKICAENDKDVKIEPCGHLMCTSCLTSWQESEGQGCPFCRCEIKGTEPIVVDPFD

T2: GST-CBL-Y371S (47–435) (UniProt P22681 47-435, Y371S)
T2 construct: CBL fragment, residues 47-435, with the MDS/MPN mutation Y371S; also called CBL-Y371S fragment; source: recombinant, purified (preparation in the Supplemental Information); not shown: GST, N-terminal, kept
T2 sequence (looked up): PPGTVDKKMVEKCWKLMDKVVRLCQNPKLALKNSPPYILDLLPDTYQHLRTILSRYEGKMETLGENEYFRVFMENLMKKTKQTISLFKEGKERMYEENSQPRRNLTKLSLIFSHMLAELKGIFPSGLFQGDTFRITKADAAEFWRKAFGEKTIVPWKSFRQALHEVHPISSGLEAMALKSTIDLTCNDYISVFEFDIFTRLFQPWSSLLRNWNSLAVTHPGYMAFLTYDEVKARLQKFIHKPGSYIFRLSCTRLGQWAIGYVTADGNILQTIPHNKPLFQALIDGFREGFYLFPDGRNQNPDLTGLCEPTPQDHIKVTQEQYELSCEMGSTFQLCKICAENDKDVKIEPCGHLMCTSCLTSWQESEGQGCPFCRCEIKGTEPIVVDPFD


Columns and labels:
Experiment in all cases: SPR; proteins immobilized via an N-terminal GST-tag, peptides as analyte; Biacore T200, steady-state affinity
GST-CIN85-SH3B = biological target: GST-CIN85-SH3B
GST-CIN85-SH3C = biological target: GST-CIN85-SH3C
GST-CIN85-SH3A = biological target: GST-CIN85-SH3A
GST-CIN85 full-length = biological target: T3, GST-CIN85 full-length (UniProt Q96B97 1-665); conditions: both partners purified
T3 construct: CIN85 full-length; also called CIN85 FL; source: recombinant, purified (preparation in the Supplemental Information); not shown: GST, N-terminal, kept
T3 sequence (Q96B97 whole entry): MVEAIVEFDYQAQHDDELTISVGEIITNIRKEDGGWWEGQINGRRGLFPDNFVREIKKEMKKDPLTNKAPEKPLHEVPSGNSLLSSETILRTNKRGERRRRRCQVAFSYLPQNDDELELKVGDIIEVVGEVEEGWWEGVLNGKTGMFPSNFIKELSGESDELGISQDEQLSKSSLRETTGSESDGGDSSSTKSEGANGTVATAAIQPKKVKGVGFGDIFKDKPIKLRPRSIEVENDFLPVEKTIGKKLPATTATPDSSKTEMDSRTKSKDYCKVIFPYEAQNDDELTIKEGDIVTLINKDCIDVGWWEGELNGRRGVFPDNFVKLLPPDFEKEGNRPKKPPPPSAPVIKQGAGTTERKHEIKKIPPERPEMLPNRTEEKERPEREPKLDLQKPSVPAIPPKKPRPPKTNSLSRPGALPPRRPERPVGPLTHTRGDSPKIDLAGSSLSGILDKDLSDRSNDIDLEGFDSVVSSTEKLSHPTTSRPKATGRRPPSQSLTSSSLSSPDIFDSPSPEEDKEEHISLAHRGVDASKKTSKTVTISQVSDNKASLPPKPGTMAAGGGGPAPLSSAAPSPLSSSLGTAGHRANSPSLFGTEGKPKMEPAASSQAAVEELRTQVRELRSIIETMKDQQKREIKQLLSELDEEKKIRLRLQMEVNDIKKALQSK

GST-WT-CBL (47–435) = biological target: T1, GST-WT-CBL (47–435); conditions: both partners purified
GST-CBL-Y371S (47–435) = biological target: T2, GST-CBL-Y371S (47–435); conditions: both partners purified

Row | Kd (GST-CIN85-SH3B) | Kd (GST-CIN85-SH3C) | Kd (GST-CIN85-SH3A) | Kd (GST-CIN85 full-length) | Kd (GST-WT-CBL (47–435)) | Kd (GST-CBL-Y371S (47–435)) | Binder
1 | 2.3 µM | 68 µM | 35.6 µM | 5.5 µM | – | – | PERPPKPFPRRIN (also called proline-rich peptide of CBL) [PepC1]
2 | – | – | – | – | 1.2 µM | 0.6 µM | LQR[pY]SSDPTGA (EGFR peptide with a phosphotyrosine; also called pY-EGFR peptide) [tyrosine-phosphorylated EGFR peptide]
